As a reminder, the Kd is the constant that tells how readily two partners part at equilibrium. A lower Kd goes with a tighter complex.

In the test the target is T1, mutated-truncated DsbC (mtDsbC) tagged SARS-CoV-2 Receptor Binding Domain (RBD) (Severe acute respiratory syndrome …, UniProt P0DTC2, biotin (biotinylated, site not stated)).
T1 construct: also called mtDsbC-SARS-CoV-2 wild type; SARS-CoV-2 RBD
Briefly: BLI; biotinylated antigen (5 µg/mL) immobilised on Streptavidin biosensors; five concentrations of Fab or FabH3 (3-243 nM); Octet RED384, 30 °C, 1000 rpm, 1X PBS Kinetics Buffer; global fit, 1:1 interaction model. As to conditions: both partners purified. In general terms: BLI is a label-free optical method that tracks binding on a fibre tip over time.

B1: REGN10987-based FabH3 (GS-G4 linker) (other)
VH: QVQLVESGGGVVQPGRSLRLSCAASGFTFSNYAMYWVRQAPGKGLEWVAVISYDGSNKYYADSVKGRFTISRDNSKNTLYLQMNSLRTEDTAVYYCASGSDYGDYLLVYWGQGTLVTVSS
VL: QSALTQPASVSGSPGQSITISCTGTSSDVGGYNYVSWYQQHPGKAPKLMIYDVSKRPSGVSNRFSGSKSGNTASLTISGLQSEDEADYYCNSLTSISTWVFGGGTKLTVL
notes: VH domain of REGN10987, as the VH of the heavy chain of m1; flexible glycine-serine linker, printed only as the formula 'GS-G4' (G: glycine, S: serine); spelled out from that formula; IgG1 heavy chain constant 3 (CH3) domain; VL domain of REGN10987, as the VL of the light chain of m1; E356 is 239 and D399 is 282 in P01857; also called REGN10987 FabH3; FabH3 format; copies: 1 + 1
For the molecule B1, the Kd was 20 ± 2.6 nM.

B2: REGN10987 wild type Fab (Fab, V domains shown)
VH: QVQLVESGGGVVQPGRSLRLSCAASGFTFSNYAMYWVRQAPGKGLEWVAVISYDGSNKYYADSVKGRFTISRDNSKNTLYLQMNSLRTEDTAVYYCASGSDYGDYLLVYWGQGTLVTVSS
VL: QSALTQPASVSGSPGQSITISCTGTSSDVGGYNYVSWYQQHPGKAPKLMIYDVSKRPSGVSNRFSGSKSGNTASLTISGLQSEDEADYYCNSLTSISTWVFGGGTKLTVL
notes: Fab heavy chain (VH-CH1) of REGN10987; Fab light chain (VL-CL, lambda) of REGN10987; Heavy and light chain are covalently linked (one mass of 47,892 Da by ESI-MS); also called REGN10987 Fab; REGN10987-Fab
B2: the Kd was 43 ± 4.4 nM.

(Values after publication PMC10469194 (Scientific Reports, 2023).)
